As usually defined, the % inhibition is how much of the control response was suppressed.

The target in this test is Sortilin SORTECD_HIS (human) (UniProt Q99523). Put plainly: HTRF, displacement of PGRN from His-tagged Sortilin ECD.
Sortilin SORTECD_HIS (human), sequence (Q99523 other isoform, or with tags, fused parts or gaps limits assumed): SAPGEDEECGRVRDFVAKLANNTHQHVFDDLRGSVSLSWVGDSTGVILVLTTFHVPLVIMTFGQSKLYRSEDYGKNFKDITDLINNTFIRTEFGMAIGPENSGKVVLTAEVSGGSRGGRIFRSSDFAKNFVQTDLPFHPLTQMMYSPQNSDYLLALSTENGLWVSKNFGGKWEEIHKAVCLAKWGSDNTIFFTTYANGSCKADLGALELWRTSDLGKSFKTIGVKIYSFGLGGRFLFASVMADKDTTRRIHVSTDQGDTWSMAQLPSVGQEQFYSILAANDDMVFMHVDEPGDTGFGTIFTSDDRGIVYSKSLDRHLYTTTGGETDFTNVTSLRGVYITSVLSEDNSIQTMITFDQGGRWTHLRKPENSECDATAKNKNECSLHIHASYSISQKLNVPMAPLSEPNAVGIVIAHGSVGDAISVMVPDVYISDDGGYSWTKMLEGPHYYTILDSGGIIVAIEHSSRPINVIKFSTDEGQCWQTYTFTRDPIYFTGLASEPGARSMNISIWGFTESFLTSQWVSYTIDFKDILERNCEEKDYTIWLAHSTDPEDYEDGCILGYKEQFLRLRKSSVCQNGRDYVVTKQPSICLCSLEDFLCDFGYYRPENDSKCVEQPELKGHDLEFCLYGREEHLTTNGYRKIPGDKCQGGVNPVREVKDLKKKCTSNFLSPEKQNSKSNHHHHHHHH

IgG1-b12 (antibody) came in with a % inh highest conc of 37% and a % inhibition at 1 µM of 37%.

Values taken from patent US20170267761A1.
